The results in this text go back to patent US20250368735A1 (AKESO BIOPHARMA, published 2025).

Test [1] has as its target T1, CD47 IgV TEV-His (human, UniProt Q08722 19-141).
T1 construct: range 19-141; also called human CD47 IgV TEV-His; not shown: his tag
Briefly: indirect ELISA screening with CD47 IgV TEV-His as antigen. In general terms: An ELISA detects its analyte on a solid surface through an enzyme-linked reagent.

The target of test [2] is T2, CLDN18.2 on the cell membrane surface (CHO-K1-CLDN18.2 cells, CHO-K1-CLDN18.2-CD47 cells, CHO-K1-hClaudin18.2 … (human, UniProt P56856-2 1-261)).
T2 construct: whole, on cells; also called human Claudin18.2
Briefly: indirect ELISA screening with CHO-K1-hClaudin18.2 cells as antigen.

Test [3] concerns the target T3, CD47 on the cell membrane surface (CHO-K1-CLDN18.2-CD47 cells, 3T3-CD47 cells, human red blood cells, human T … (human, UniProt Q08722 19-323)).
T3 construct: whole, on cells; blood cells came from healthy human volunteers; also called cell membrane surface antigen CD47
Briefly: flow cytometry (FACS) on CHO-K1-CLDN18.2-CD47 cells, PE anti-human IgG Fc.
Experimental: CHO-K1-CLDN18.2-CD47 cells (CHO-K1 cells overexpress CLDN18.2 and CD47 antigens, and are obtained from Cell Resource Center, Institute of Basic Medical Sciences, Chinese Academy of Medical Sciences) in the logarithmic growth phase were collected, and were transferred to a V-bottomed 96-well plate at 1×10⁵ cells/well. 100 μL of 1% PBSA (PBS+1% BSA) was added, and the mixture was centrifuged at 1000×g for 5 min, followed by removal of the supernatant. […] The mixture was mixed gently and well, and then incubated on ice for 40 min. 150 μL of 1% PBSA was added to each well, and the mixture was centrifuged at 1000×g for 5 min. The supernatant was discarded, and the plate was further washed three times at 200 μL/time. […] The diluted antibody was added to corresponding samples at 100 μL/well, and the cell pellet was resuspended and incubated on ice in the dark for 0.5 h. 150 μL of 1% PBSA was added to each well, and the mixture was centrifuged at 1000 g for 5 min, followed by removal of the supernatant. Then the plate was washed twice with 200 μL of 1% PBSA. 200 μL of 1% PBSA was added to each well to resuspend the cell pellet, and the mixture was transferred to a flow cytometry tube. FACS Calibur assay was performed, and the binding activity was analyzed.

In test [4] the target is T3, CD47 on the cell membrane surface …. Briefly: competitive flow cytometry on CHO-K1-CLDN18.2-CD47 cells; competitor hSIRPaV2-hFc-mFc at 3 nM. The procedure:
100 μL of 1% PBSA was then added to each well, and the mixture was centrifuged and washed.
(In general: A flow cytometer gives signals particle by particle.)

The target in a further test is T4, CD47 ECD-His (human, UniProt Q08722 19-141, limits assumed).
T4 construct: extracellular domain; also called human CD47 ECD-His; not shown: His tag
Briefly: BLI (Fortebio Octet), antibody on AHC sensor, CD47 ECD-His 4.94-400 nM, 1:1 fit. How it is done:
The affinity constant of the antibody for human CLDN18.2 and CD47 ECD-His was determined using a Fortebio Octer molecular interaction instrument. The sample dilution buffer was PBS (0.02% Tween-20, 0.1% BSA, pH 7.4). The method for detecting the affinity of the antibody for human CLDN18.2 is as follows. The antibody at 20 nM was immobilized on an AHC sensor for 60 s. The sensor was equilibrated in a buffer for 60 s, and the binding of the immobilized antibody on the sensor to CLDN18.2 His at concentrations of 6.25-100 nM (two-fold dilution) was determined for 180 s. The protein was dissociated in the buffer for 360 s. The method for detecting the affinity of the antibody to human CD47 ECD-His is as follows. The antibody at 30 nM was immobilized on an AHC sensor for 120 s. The sensor was equilibrated in a buffer for 60 s, and the binding of the immobilized antibody on the sensor to the protein CD47 ECD-His at concentrations of 4.94-400 nM (three-fold dilution) was determined for 50 s. The protein was dissociated in the buffer for 120 s. The shaking speed of the sample plate was 1000 rpm, the temperature was 30° C., and the frequency was 5.0 Hz. The data were analyzed by 1:1 model fitting to obtain affinity constants. The data acquisition software was Fortebio Data Acquisition 12.0, and the data analysis software was Fortebio Data Analysis HT 12.0.
Background: In BLI a coated tip is dipped into the sample, and binding shifts an interference pattern.

The target of test [5] is T1, CD47 IgV TEV-His. Briefly: indirect ELISA, coated CD47-Igv-TEV-his 2 µg/mL. The procedure: After blocking, the ELISA plate was washed 3 times with PBST. The ELISA plate containing the test antibodies was incubated at 37° C. for 30 min and then washed 3 times with PBST. […] The data were analyzed and processed by SoftMax Pro 6.2.1.
In test [6] the target is T5, human CLDN18.2 (ELISA coating antigen) (human, UniProt P56856-2 1-261, limits assumed).
T5 construct: also called antigen human CLDN18.2
Briefly: indirect ELISA, coated human CLDN18.2 2 µg/mL. The procedure: After blocking, the ELISA plate was washed 3 times with PBST. The ELISA plate containing the test antibodies was incubated at 37° C. for 30 min and then washed 3 times with PBST. […] The ELISA plate was put into a microplate reader immediately, and the OD value of each well in the ELISA plate was read at 450 nm. The data were analyzed and processed by SoftMax Pro 6.2.1.

B1: 6F7 (antibody, V domains shown)
VH: QVQLQQPGAELVRPGASVKLSCKASGYTFTSYWMNWVKQRPGQGLEWIGMIDPSDSETHNNQMFKDKATLTVDKSSNTAYMHLSSLTSEDSAVYHCARLYRWYFDVWGAGTTVTVSS
VL: NIVMTQSPKSMSMSLGERVTLSCKASEIVGTYVSWFQQKPHQSPKLLIYGASNRYTGVPDRFTGSGSATDFTLTISNVQAEDLADYHCGQSYNFPYTFGGGTKLEIK
notes: Mouse hybridoma antibody; also called anti-CD47 antibody 6F7; monoclonal antibody secreted by hybridoma cell line LT012
Consider B1, for which the binding result with CD47 IgV TEV-His [1] is “binds”.

B2: 8C5.1 (antibody, V domains shown)
VH: EVQLVESGGGLVKPGGSLKLSCAASGFTFSNSAVSWVRQTPEKRLEWVATITSGVSYTYYLDSVRGRFTISRDNAKNTLYLQMSSLRSEDTAMYYCTRQFKGNALDYWGQGTSVTVSS
VL: DIVMTQSPSSLTVTAGEKVTMSCKSSQSLLNSGNQKNYLTWYQQKPGQPPKLLIYWASTRESGVPDRFTGSGSGTDFTLTINNFQAEDLAVYYCQNDYFYPLTFGAGTKLELK
notes: Mouse hybridoma antibody; also called anti-CLDN18.2 antibody 8C5.1; monoclonal antibody secreted by hybridoma cell line LT020
As to B2, the binding result in test [2] is recorded as “binds”.

B3: 6F7H1L1(hG4) (antibody, V domains shown)
VH: QVQLVQSGAEVVKPGASVKLSCKASGYTFTSYWMNWVRQRPGQGLEWIGMIDPSDSETHNAQKFQGKATLTVDKSTSTAYMHLSSLRSEDTAVYYCARLYRWYFDVWGAGTTVTVSS
VL: NIVMTQSPATMSMSPGERVTLSCRASEIVGTYVSWFQQKPGQAPRLLIYGASNRYTGVPARFSGSGSGTDFTLTISSVQPEDLADYHCGQSYNFPYTFGGGTKLEIKR
Broadly, the EC50 is the concentration needed to bring the measured effect to its halfway point. What is called Kd is the constant that tells how readily two partners part at equilibrium. High values mean lower affinity, low ones higher affinity. Usually koff stands for a measure of how fast the partners let go of each other. Read a high koff as a short-lived complex. The term kon denotes the rate constant with which the complex forms. Consider B3, for which the results for the 50% effective concentration (EC50) (in test [3]; in test [4]; with CD47 IgV TEV-His [5]) were 1.29 nM, 5 nM and 0.012 nM, respectively. Moreover, binding with CD47 ECD-His was characterised by a dissociation constant (Kd) of 27.3 nM. Moreover, the koff with CD47 ECD-His amounted to 0.0142 s⁻¹. In addition, the kon with CD47 ECD-His was 519000 M⁻¹ s⁻¹.

B4: IMAB362 (antibody, V domains shown)
VH: QVQLQQPGAELVRPGASVKLSCKASGYTFTSYWINWVKQRPGQGLEWIGNIYPSDSYTNYNQKFKDKATLTVDKSSSTAYMQLSSPTSEDSAVYYCTRSWRGNSFDYWGQGTTLTVSS
VL: DIVMTQSPSSLTVTAGEKVTMSCKSSQSLLNSGNQKNYLTWYQQKPGQPPKLLIYWASTRESGVPDRFTGSGSGTDFTLTISSVQAEDLAVYYCQNDYSYPFTFGSGTKLEIKR
Turning to B4, the EC50 in test [6] amounted to 0.014 nM.
